Measurements published in publication PMC3254805.

Target: endogenous GSK3β (UniProt P49841)
Assay: anti-FoxO3a IP, GSK3β blot
Details: reference: HA-FoxO3a-WT; sites T32,S253,S315

- binding against the reference: stronger
Substance: FoxO3a (RLuc- or HA-tagged constructs, WT and TM) (from UniProt O43524) HA-FoxO3a-TM (triple mutant)
